Source: US20240115603A1 (Zymeworks, published 2024)
Changes are numbered by the printed parent chain.

B1: WT G-CSF, purified, tag cleaved (ligand)
chain: TPLGPASSLPQSFLLKCLEQVRKIQGDGAALQEKLCATYKLCHPEELVLLGHSLGIPWAPLSSCPSQALQLAGCLSQLHSGLFLYQGLLQALEGISPELGPTLDTLQLDVADFATTIWQQMEELGMAPALQPTQGAMPAFASAFQRRAGGVLVASHLQSFLEVSYRVLRHLAQAAAENLYFQ
notes: also called G-CSFWT
B2: G-CSFE design 307, purified, tag cleaved (ligand)
chain: B1 chain with S12E, K16D, E19K, E46R
notes: also called 307 G-CSF
B3: WT G-CSFR(Ig-CRH), purified, tag cleaved (receptor)
chain: GSMGCGHISVSAPIVHLGDPITASCIIKQNCSHLDPEPQILWRLGAELQPGGRQQRLSDGTQESIITLPHLNHTQAFLSCSLNWGNSLQILDQVELRAGYPPAIPHNLSCLMNLTTSSLICQWEPGPETHLPTSFTLKSFKSRGNCQTQGDSILDCVPKDGQSHCSIPRKHLLLYQNMGIWVQAENALGTSMSPQLCLDPMDVVKLEPPMLRTMDPSPEAAPPQAGCLQLSWEPWQPGLHINQKCELRHKPQRGEASWALVGPLPLEALQYELCGLLPATAYTLQIRCIRWPLPGHWSDWSPSLELRTTE
notes: also called G-CSFRWT; wild type G-CSFR ECD

Assays:
[1] = molecular target: T1, G-CSFR(Ig-CRH)E design 9, purified, tag cleaved (human, UniProt Q99062 26-331); assay: SPR (Biacore T200)
T1 construct: SPR protein; also called Design 9 G-CSFR(Ig-CRH)E
T1 chain: B3 chain with R143E, R169D, K170D, Q176D

[2] = molecular target: T2, G-CSFR(Ig-CRH)E design 30, purified, tag cleaved (human, UniProt Q99062 26-331); assay: SPR (Biacore T200)
T2 construct: also called Design 30 G-CSFR(Ig-CRH)E
T2 chain: B3 chain with R169D

[3] = molecular target: T3, G-CSFR(Ig-CRH)E design 34, purified, tag cleaved (human, UniProt Q99062 26-331); assay: SPR (Biacore T200)
T3 construct: SPR protein; also called Design 34 G-CSFR(Ig-CRH)E
T3 chain: B3 chain with R143E, R169D

[4] = molecular target: T2, G-CSFR(Ig-CRH)E design 30, purified, …; assay: SPR (Biacore T200), WT G-CSF vs design receptor; KD relative to WT:WT control (larger = weaker)
[5] = molecular target: T4, G-CSFR(Ig-CRH)E design 35, purified, tag cleaved (human, UniProt Q99062 26-331); assay: as above
T4 construct: SPR protein; also called Design #35 G-CSFR(Ig-CRH)E
T4 chain: B3 chain with R143E, L173E, Q176E

[6] = molecular target: T1, G-CSFR(Ig-CRH)E design 9, purified, tag …; assay: SPR (Biacore T200), WT G-CSF vs design receptor; steady-state derived KD relative to steady-state WT:WT KD (larger = weaker)
[7] = molecular target: T3, G-CSFR(Ig-CRH)E design 34, purified, …; assay: as above
[8] = molecular target: B3; assay: SPR (Biacore T200), WT G-CSFR(Ig-CRH) amine-coupled
[9] = molecular target: T5, G-CSFR(Ig-CRH)E design 307, purified, tag cleaved (human, UniProt Q99062 26-331); assay: SPR (Biacore T200), G-CSFR(Ig-CRH)E amine-coupled, G-CSFE injected; steady-state derived KD relative to steady-state WT:WT KD
T5 construct: SPR protein; also called Design 307 G-CSFR(Ig-CRH)E
T5 chain: B3 chain with R43E, D199K, D202K, R290E
Method: To determine binding affinity of G-CSFE to G-CSFRE the G-CSFRE mutant was captured by standard amine coupling as described by the manufacturer (GE LifeSciences). Briefly, immediately after EDC/NHS activation, a 5 μg/mL solution of G-CSFRE in 10 mM NaOAc, pH 5.0, was injected at a flow rate of 5 μL/min until a receptor density of ˜700-900 RU was reached. The remaining active groups were quenched by a 420 s injection of 1 M ethanolamine hydrochloride-NaOH pH 8.5 at 10 μL/min. Using single-cycle kinetics, six concentrations of a two-fold dilution series of the corresponding G-CSFE mutant starting at 200 nM with a blank buffer control were sequentially injected at 25 μL/min for 300s with a 1800s dissociation phase, resulting in a set of sensorgrams with a buffer blank reference. The same sample titration was also performed on a reference cell with no variants captured. The chip was regenerated to prepare for the next injection cycle by one pulse of 10 mM glycine/HCl, pH 2.0, for 30 s at 30 μL/min.
(§1) Double-referenced sensorgrams from duplicate or triplicate repeat injections were analyzed using Biacore™ T200 Evaluation Software v3.0 and fit to the 1:1 Langmuir binding model.
(§2) Kinetic-derived affinity constants (KD) where obtained by fitting the association and dissociation phases of the curves. […] For the cases in which the kinetic parameters could not be fit an attempt was made to derive a steady state affinity constant.

[10] = molecular target: B1; assay: SPR (Biacore T200, 25 C), kinetic fit, 1:1 Langmuir; range over independent experiments; lower end of the range over the WT:WT runs
Method: The SPR binding assays were carried out on a Biacore T200 instrument (GE Healthcare, Mississauga, ON, Canada) with PBS-T (PBS+0.05% (v/v) Tween 20) running buffer at a temperature of 25° C. […] Designs were assessed in three different immobilization orientations.
as §1, §2

B1
fold weaker affinity (vs WT:WT) [1]: 700 fold | fold weaker affinity (vs WT:WT) [2]: 700 fold | fold weaker affinity (vs WT:WT) [3]: 700 fold | KD fold change (vs WT:WT) [4]: 774 fold | KD fold change (vs WT:WT) [5]: 19 fold | KD fold change (vs WT:WT) [6]: 8810 fold | KD fold change (vs WT:WT) [7]: 4260 fold

B2
binding result [8]: no binding | KD fold change (vs WT:WT) [9]: 0.6 fold

B3
Kd [10]: 1.8 to 2.5 nM
